Laboratory results taken from patent publication US20180142030A1 (Bristol-Myers Squibb, published 2018).

T1: FcγRIIb (human, UniProt P31994 43-217, limits assumed)
T1 construct: Construct not described; also called hCD32b/FcγRIIb
T1 sequence (looked up): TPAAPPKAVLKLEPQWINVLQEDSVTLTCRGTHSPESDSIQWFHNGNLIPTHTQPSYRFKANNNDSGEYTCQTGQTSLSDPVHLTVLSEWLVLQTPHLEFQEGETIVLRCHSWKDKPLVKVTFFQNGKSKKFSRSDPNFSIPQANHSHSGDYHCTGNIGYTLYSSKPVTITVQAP

T2: FcγRIIa-H131 (human, UniProt P12318 34-218, limits assumed)
T2 construct: Construct not described; also called hCD32a/FcγRIIa-H131
T2 sequence (looked up): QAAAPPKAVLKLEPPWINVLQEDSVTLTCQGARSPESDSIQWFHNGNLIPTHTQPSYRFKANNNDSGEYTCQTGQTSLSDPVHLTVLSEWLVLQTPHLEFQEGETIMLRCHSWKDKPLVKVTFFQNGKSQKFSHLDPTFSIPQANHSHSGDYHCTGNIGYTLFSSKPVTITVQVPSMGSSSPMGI

T3: FcγRIIa-R131 (human, UniProt P12318 34-218, limits assumed)
T3 construct: Construct not described
T3 sequence (looked up): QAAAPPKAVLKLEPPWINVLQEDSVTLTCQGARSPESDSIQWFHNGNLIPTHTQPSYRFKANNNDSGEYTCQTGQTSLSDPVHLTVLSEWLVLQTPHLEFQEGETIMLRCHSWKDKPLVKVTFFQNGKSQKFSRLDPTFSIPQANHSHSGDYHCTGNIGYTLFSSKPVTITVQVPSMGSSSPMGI


How the values were obtained:
[1] = biological target: T4, recombinant human CD40 monomer (human, UniProt P25942 21-193); assay: BLI (Octet RED); antibody supernatant captured on protein A sensors, huCD40-monomer in solution
T4 construct: also called huCD40-monomer; soluble human CD40
T4 sequence (P25942 21-193 limits assumed): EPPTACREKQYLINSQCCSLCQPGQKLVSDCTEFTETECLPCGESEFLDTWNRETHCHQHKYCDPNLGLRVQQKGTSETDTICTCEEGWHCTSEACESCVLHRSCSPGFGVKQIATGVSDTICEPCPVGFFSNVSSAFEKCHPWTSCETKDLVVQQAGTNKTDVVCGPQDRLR
Text: The closest matching human germline region sequence was selected for each mouse variable domain, and these human framework regions were used to replace murine frameworks in the “CDR graft” versions of the antibodies. Additional amino acid substitutions, such as framework back-mutations, were then made as necessary to restore the binding affinity of the humanized antibody. Further amino acid substitutions were made to eliminate sequence liabilities. The sequence relationships between the various forms of the antibodies of the present invention are provided at Table 6. The binding of various agonistic anti-huCD40 antibodies to soluble human CD40 was determined by Biolayer Interferometry (BLI) analysis using a Fortebio Octet RED (Rapid system—Extended Detection) label-free interaction analysis instrument. All studies were performed in 10 mM NaₓPO₄, 130 mM NaCl, 0.05% Surfactant P20 (pH 7.1) at 25° C. Briefly, anti-huCD40 antibody supernatants (diluted to 10 μg/ml or captured undiluted if supernatant concentration was less than 10 μg/ml) were captured on protein A coated biosensors (Pall Fortebio #18-5010) using a loading time of 90 s and shake speed of 1000 rpm. Supernatants were first screened for binding to 1 μM recombinant human CD40 monomer (huCD40-monomer) using 180 s association and dissociation times, at 1000 rpm, with two 15 s conditioning steps using 10 mM glycine pH 1.5 in between binding cycles.

FcγRIIb = biological target: T1, FcγRIIb; assay: BLI (ForteBio Octet), %Rmax at 1 µM hCD32b/FcγRIIb
Procedure: (§1) See Example 8. Antibody names including “-sup” represent supernatants from antibody producing cells, whereas others are purified antibodies. Data are presented as percentages of a maximum receptor binding value for each combination of antibody and receptor, as measured in a ForteBio Octet system. See, e.g., Example 3. Each cluster of three bars represents, from left to right, binding to hCD32a/FcγRIIa-H131 (10 μM) (hatched bars), […] (10 μM) (black bars), and hCD32b/FcγRIIb (1 μM) (white bars).
(§2) Supernatants were obtained from cells expressing these antibodies and assayed for binding to hCD32/FcγRII. Selected purified antibodies without mutations at position 270 were used as controls.

FcγRIIa-H131 = biological target: T2, FcγRIIa-H131; assay: BLI (ForteBio Octet), %Rmax at 10 µM hCD32a/FcγRIIa-H131
Procedure: as §1, §2

FcγRIIa-R131 = biological target: T3, FcγRIIa-R131; assay: BLI (ForteBio Octet), %Rmax at 10 µM FcγRIIa-R131 (CD32a-R131 on the sheet)
Procedure: as §1, §2

Row | Binder | Kd [1] [nM] | binding result [1] | binding result (FcγRIIb) | binding result (FcγRIIa-H131) | binding result (FcγRIIa-R131)
1 | 8E8-67 (antibody, human IgG1, kappa, V domains shown, Humanized; IgG1f) VH: QVQFVQSGAEVKKPGSSVKVSCKASGYTFTSYWMQWVRQAPGQGLEWMGTIYPGDGDSRYNQKFKGKALLTADKSTSTAYMELSSLRSEDTAVYYCARFSLYEGYPYYFDYWGQGTTVTVSS VL: DIVMTQSPLSLPVTPGEPASISCRSSQSLVHRNANTYLHWYLQKPGQSPQLLIYRVSNRFSGVPDRFSGSGSGTDFTLKISRVEAEDVGVYYCSQSTHFPYTFGGGTKVEIKR | 28 |  |  |  | 
2 | 8E8-70 (antibody, human IgG1, kappa, V domains shown, Humanized; IgG1f) VH: QVQFVQSGAEVKKPGSSVKVSCKASGYTFTSYWMQWVRQAPGQGLEWMGTIYPGDSDSRYNQKFKGKALLTADKSTSTAYMELSSLRSEDTAVYYCARFSLYEGYPYYFDYWGQGTTVTVSS VL: DIVMTQSPLSLPVTPGEPASISCRSSQSLVHRNGNTYLHWYLQKPGQSPQLLIYRVSNRFSGVPDRFSGSGSGTDFTLKISRVEAEDVGVYYCSQSTHFPYTFGGGTKVEIKR |  | binds |  |  | 
3 | 8E8-71 (antibody, human IgG1, kappa, V domains shown, Humanized; IgG1f) VH: QVQFVQSGAEVKKPGSSVKVSCKASGYTFTSYWMQWVRQAPGQGLEWMGTIYPGDSDSRYNQKFKGKALLTADKSTSTAYMELSSLRSEDTAVYYCARFSLYEGYPYYFDYWGQGTTVTVSS VL: DIVMTQSPLSLPVTPGEPASISCRSSQSLVHRNANTYLHWYLQKPGQSPQLLIYRVSNRFSGVPDRFSGSGSGTDFTLKISRVEAEDVGVYYCSQSTHFPYTFGGGTKVEIKR |  | binds |  |  | 
4 | 12D6-24 V9 (antibody, human IgG1, kappa) heavy: QVQLVQSGAEVKKPGASVKVSCKASGYTFTGYNMNWVRQAPGQGLEWMGNIDPYYGNTNYNQKFKGRVTMTTDTSTSTAYMELRSLRSDDTAVYYCARLGLQLYALDYWGQGTTVTVSSASTKGPSVFPLAPSSKSTSGGTAALGCLVKDYFPEPVTVSWNSGALTSGVHTFPAVLQSSGLYSLSSVVTVPSSSLGTQTYICNVNHKPSNTKVDKRVEPKSCDKTHTCPPCPAPELLGDDSVFLFPPKPKDTLMISRTPEVTCVVVDVSHEDGEVKFNWYVDGVEVHNAKTKPREEQYNSTYRVVSVLTVLHQDWLNGKEYKCKVSNKALPRPIEKTISKAKGQPREPQVYTLPPSREEMTKNQVSLTCLVKGFYPSDIAVEWESNGQPENNYKTTPPVLDSDGSFFLYSKLTVDKSRWQQGNVFSCSVMHEALHNHYTQKSLSLSPG light: DIVMTQTPLSLPVTPGEPASISCRSSQSLVHSNANTYLHWYLQKPGQSPQLLIYKLTNRFFGVPDRFSGSGSGTDFTLKISRVEAEDVGVYYCSQSIHVPWTFGGGTKVEIKRTVAAPSVFIFPPSDEQLKSGTASVVCLLNNFYPREAKVQWKVDNALQSGNSQESVTEQDSKDSTYSLSSTLTLSKADYEKHKVYACEVTHQGLSSPVTKSFNRGEC |  |  | binds | binds | binds

Further lines, results first:

Row | Kd [1] [nM] | binding result [1] | binding result (FcγRIIb) | binding result (FcγRIIa-H131) | binding result (FcγRIIa-R131) | Binder
5 |  |  | binds |  | binds | 12D6-24 V4 D270E (antibody, human IgG1, kappa) heavy: QVQLVQSGAEVKKPGASVKVSCKASGYTFTGYNMNWVRQAPGQGLEWMGNIDPYYGNTNYNQKFKGRVTMTTDTSTSTAYMELRSLRSDDTAVYYCARLGLQLYALDYWGQGTTVTVSSASTKGPSVFPLAPSSKSTSGGTAALGCLVKDYFPEPVTVSWNSGALTSGVHTFPAVLQSSGLYSLSSVVTVPSSSLGTQTYICNVNHKPSNTKVDKRVEPKSCDKTHTCPPCPAPELLGGDSVFLFPPKPKDTLMISRTPEVTCVVVDVSHEEGEVKFNWYVDGVEVHNAKTKPREEQYNSTYRVVSVLTVLHQDWLNGKEYKCKVSNKALPAPIEKTISKAKGQPREPQVYTLPPSREEMTKNQVSLTCLVKGFYPSDIAVEWESNGQPENNYKTTPPVLDSDGSFFLYSKLTVDKSRWQQGNVFSCSVMHEALHNHYTQKSLSLSPG light: DIVMTQTPLSLPVTPGEPASISCRSSQSLVHSNANTYLHWYLQKPGQSPQLLIYKLTNRFFGVPDRFSGSGSGTDFTLKISRVEAEDVGVYYCSQSIHVPWTFGGGTKVEIKRTVAAPSVFIFPPSDEQLKSGTASVVCLLNNFYPREAKVQWKVDNALQSGNSQESVTEQDSKDSTYSLSSTLTLSKADYEKHKVYACEVTHQGLSSPVTKSFNRGEC
6 |  |  | binds |  | binds | 12D6-24-V9-DT-sup (antibody, Tested as supernatant of antibody-producing cells; also called 12D6-24 V9 D270T; copies: 2 + 2) heavy: QVQLVQSGAEVKKPGASVKVSCKASGYTFTGYNMNWVRQAPGQGLEWMGNIDPYYGNTNYNQKFKGRVTMTTDTSTSTAYMELRSLRSDDTAVYYCARLGLQLYALDYWGQGTTVTVSSASTKGPSVFPLAPSSKSTSGGTAALGCLVKDYFPEPVTVSWNSGALTSGVHTFPAVLQSSGLYSLSSVVTVPSSSLGTQTYICNVNHKPSNTKVDKRVEPKSCDKTHTCPPCPAPELLGDDSVFLFPPKPKDTLMISRTPEVTCVVVDVSHETGEVKFNWYVDGVEVHNAKTKPREEQYNSTYRVVSVLTVLHQDWLNGKEYKCKVSNKALPRPIEKTISKAKGQPREPQVYTLPPSREEMTKNQVSLTCLVKGFYPSDIAVEWESNGQPENNYKTTPPVLDSDGSFFLYSKLTVDKSRWQQGNVFSCSVMHEALHNHYTQKSLSLSPG light: DIVMTQTPLSLPVTPGEPASISCRSSQSLVHSNANTYLHWYLQKPGQSPQLLIYKLTNRFFGVPDRFSGSGSGTDFTLKISRVEAEDVGVYYCSQSIHVPWTFGGGTKVEIKRTVAAPSVFIFPPSDEQLKSGTASVVCLLNNFYPREAKVQWKVDNALQSGNSQESVTEQDSKDSTYSLSSTLTLSKADYEKHKVYACEVTHQGLSSPVTKSFNRGEC
7 |  |  | binds |  | binds | 5F11-45 V4 D270E (antibody, human IgG1, kappa, also called 5F11-45 D270E V4) heavy: QVQLVQSGAEVKKPGSSVKVSCKASGYTFTDLSMHWVRQAPGQGLEWMGYITPSSGYTAYNQKFKGKTTLTADKSTSTAYMELSSLRSEDTAVYYCARLILQRGAYWGQGTLVTVSSASTKGPSVFPLAPSSKSTSGGTAALGCLVKDYFPEPVTVSWNSGALTSGVHTFPAVLQSSGLYSLSSVVTVPSSSLGTQTYICNVNHKPSNTKVDKRVEPKSCDKTHTCPPCPAPELLGGDSVFLFPPKPKDTLMISRTPEVTCVVVDVSHEEGEVKFNWYVDGVEVHNAKTKPREEQYNSTYRVVSVLTVLHQDWLNGKEYKCKVSNKALPAPIEKTISKAKGQPREPQVYTLPPSREEMTKNQVSLTCLVKGFYPSDIAVEWESNGQPENNYKTTPPVLDSDGSFFLYSKLTVDKSRWQQGNVFSCSVMHEALHNHYTQKSLSLSPG light: DIVLTQSPDSLAVSLGERATINCRASKNVDSYGNSFMHWYQQKPGQPPKLLIYRASNLESGVPDRFSGSGSGTDFTLTISSLQAEDVAVYYCQQSNEDPLTFGQGTKLEIKRTVAAPSVFIFPPSDEQLKSGTASVVCLLNNFYPREAKVQWKVDNALQSGNSQESVTEQDSKDSTYSLSSTLTLSKADYEKHKVYACEVTHQGLSSPVTKSFNRGEC
8 |  |  | binds |  | binds | 5F11-45-V9-DT-sup (antibody, human IgG1, kappa, Tested as supernatant of antibody-producing cells; also called 5F11-45 V9 D270T) heavy chain: QVQLVQSGAEVKKPGSSVKVSCKASGYTFTDLSMHWVRQAPGQGLEWMGYITPSSGYTAYNQKFKGKTTLTADKSTSTAYMELSSLRSEDTAVYYCARLILQRGAYWGQGTLVTVSSASTKGPSVFPLAPSSKSTSGGTAALGCLVKDYFPEPVTVSWNSGALTSGVHTFPAVLQSSGLYSLSSVVTVPSSSLGTQTYICNVNHKPSNTKVDKRVEPKSCDKTHTCPPCPAPELLGDDSVFLFPPKPKDTLMISRTPEVTCVVVDVSHETGEVKFNWYVDGVEVHNAKTKPREEQYNSTYRVVSVLTVLHQDWLNGKEYKCKVSNKALPRPIEKTISKAKGQPREPQVYTLPPSREEMTKNQVSLTCLVKGFYPSDIAVEWESNGQPENNYKTTPPVLDSDGSFFLYSKLTVDKSRWQQGNVFSCSVMHEALHNHYTQKSLSLSPG light chain: DIVLTQSPDSLAVSLGERATINCRASKNVDSYGNSFMHWYQQKPGQPPKLLIYRASNLESGVPDRFSGSGSGTDFTLTISSLQAEDVAVYYCQQSNEDPLTFGQGTKLEIKRTVAAPSVFIFPPSDEQLKSGTASVVCLLNNFYPREAKVQWKVDNALQSGNSQESVTEQDSKDSTYSLSSTLTLSKADYEKHKVYACEVTHQGLSSPVTKSFNRGEC
